Assay results taken from patent US20260263647A1 (Dana-Farber, published 2026).

Experiments:
[1] = biological target: T1, human CD45 on human peripheral blood mononuclear cells (PBMCs) (human, UniProt P08575 26-1306); experiment: flow cytometry on human PBMCs
T1 construct: whole, on cells; The target is inferred from the cells used (CD45+ human PBMCs); also called hCD45
T1 sequence (looked up): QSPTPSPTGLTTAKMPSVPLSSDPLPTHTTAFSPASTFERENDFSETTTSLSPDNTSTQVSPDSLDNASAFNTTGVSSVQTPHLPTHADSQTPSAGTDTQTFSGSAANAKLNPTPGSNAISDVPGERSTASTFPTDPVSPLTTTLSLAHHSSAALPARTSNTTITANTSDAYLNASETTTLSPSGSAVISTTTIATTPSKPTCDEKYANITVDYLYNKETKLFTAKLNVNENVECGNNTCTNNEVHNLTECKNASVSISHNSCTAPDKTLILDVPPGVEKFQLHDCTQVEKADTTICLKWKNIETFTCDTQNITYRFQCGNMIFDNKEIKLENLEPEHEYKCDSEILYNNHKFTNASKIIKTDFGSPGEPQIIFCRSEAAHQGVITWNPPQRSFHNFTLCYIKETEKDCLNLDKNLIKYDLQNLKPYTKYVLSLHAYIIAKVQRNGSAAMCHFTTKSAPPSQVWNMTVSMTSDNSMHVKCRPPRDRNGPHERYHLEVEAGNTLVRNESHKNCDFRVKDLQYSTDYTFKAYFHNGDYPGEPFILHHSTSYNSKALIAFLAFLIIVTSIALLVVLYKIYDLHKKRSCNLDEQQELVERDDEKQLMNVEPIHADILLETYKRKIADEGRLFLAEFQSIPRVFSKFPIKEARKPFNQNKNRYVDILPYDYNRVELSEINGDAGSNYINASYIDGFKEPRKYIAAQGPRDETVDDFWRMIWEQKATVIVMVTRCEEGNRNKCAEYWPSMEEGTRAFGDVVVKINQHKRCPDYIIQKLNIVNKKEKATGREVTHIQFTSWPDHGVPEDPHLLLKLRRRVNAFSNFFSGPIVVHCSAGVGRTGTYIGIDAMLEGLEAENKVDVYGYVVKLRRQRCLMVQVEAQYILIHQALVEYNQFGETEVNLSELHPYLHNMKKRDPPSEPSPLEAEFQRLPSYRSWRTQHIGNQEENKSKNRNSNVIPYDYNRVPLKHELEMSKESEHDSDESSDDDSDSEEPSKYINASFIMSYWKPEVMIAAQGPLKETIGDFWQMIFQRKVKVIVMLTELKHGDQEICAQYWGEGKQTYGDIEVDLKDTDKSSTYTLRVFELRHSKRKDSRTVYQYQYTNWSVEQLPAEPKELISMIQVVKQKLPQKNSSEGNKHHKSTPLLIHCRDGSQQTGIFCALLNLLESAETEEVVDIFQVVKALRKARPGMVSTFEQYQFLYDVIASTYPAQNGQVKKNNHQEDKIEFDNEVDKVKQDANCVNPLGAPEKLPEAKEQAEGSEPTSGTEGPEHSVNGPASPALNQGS

[2] = biological target: T1, human CD45 on human peripheral blood …; experiment: flow cytometry, staining of human PBMCs with different concentrations of the minibody

- EC50 [1]: ~5 nM
- EC50 [2]: ~10 nM
B1: CD45 minibody (anti-human CD45 antibody fragment, clone BC8 scFv fused to the IgG1 CH3 domain) (other)
chain: QVQLVESGGGLVQPGGSLKLSCAASGFDFSRYWMSWVRQAPGKGLEWIGEINPTSSTINFTPSLKDKVFISRDNAKNTLYLQMSKVRSEDTALYYCARGNYYRYGDAMDYWGQGTSVTVSKISGGGGSGGGGSGGGGSGGGGSGGGGSSDIVLTQSPASLAVSLGQRATISCRASKSVSTSGYSYLHWYQQKPGQPPKLLIYLASNLESGVPARFSGSGSGTDFTLNIHPVEEEDAATYYCQHSRELPFTFGSGTKLEIKGGGSEPKSPKSADKTHTAPQPREPQVYTLPPSRDELTKNQVSLTCLVKGFYPSDIAVEWESNGQPENNYKTTPPVLDSDGSFFLYSKLTVDKSRWQQGNVFSCSVMHEALHNHYTQKSLSLSPGKDYKDDDKHHHHHH
notes: also called anti-CD45-minibody probe; human CD45-PET probe
